Assay results taken from paper PMC6389977.

Biological target: purified recombinant human GAPDH protein (human) (UniProt P04406)
Experiment: SPR

purified recombinant human GAPDH protein (human), sequence (P04406 whole entry): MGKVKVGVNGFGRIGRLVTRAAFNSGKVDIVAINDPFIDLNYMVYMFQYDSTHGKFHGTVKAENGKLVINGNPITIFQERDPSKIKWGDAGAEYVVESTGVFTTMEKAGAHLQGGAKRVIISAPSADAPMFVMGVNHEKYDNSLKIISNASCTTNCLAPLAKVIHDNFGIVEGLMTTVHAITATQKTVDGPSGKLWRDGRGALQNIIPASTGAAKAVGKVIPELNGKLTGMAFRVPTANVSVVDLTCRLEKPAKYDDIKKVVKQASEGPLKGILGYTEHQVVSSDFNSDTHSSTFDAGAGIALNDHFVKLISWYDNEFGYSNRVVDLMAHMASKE
DENV2 NS3 protease domain (domain or fragment), sequence (P14340 1476-1660 limits assumed): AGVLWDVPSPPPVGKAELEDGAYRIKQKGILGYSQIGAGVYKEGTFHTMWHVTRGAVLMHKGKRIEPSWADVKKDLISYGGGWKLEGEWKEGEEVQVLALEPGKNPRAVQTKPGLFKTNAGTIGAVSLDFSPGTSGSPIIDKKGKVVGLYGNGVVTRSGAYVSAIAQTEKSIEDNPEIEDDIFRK
DENV2 NS3 helicase domain (domain or fragment), sequence (P14340 1644-2093 limits assumed): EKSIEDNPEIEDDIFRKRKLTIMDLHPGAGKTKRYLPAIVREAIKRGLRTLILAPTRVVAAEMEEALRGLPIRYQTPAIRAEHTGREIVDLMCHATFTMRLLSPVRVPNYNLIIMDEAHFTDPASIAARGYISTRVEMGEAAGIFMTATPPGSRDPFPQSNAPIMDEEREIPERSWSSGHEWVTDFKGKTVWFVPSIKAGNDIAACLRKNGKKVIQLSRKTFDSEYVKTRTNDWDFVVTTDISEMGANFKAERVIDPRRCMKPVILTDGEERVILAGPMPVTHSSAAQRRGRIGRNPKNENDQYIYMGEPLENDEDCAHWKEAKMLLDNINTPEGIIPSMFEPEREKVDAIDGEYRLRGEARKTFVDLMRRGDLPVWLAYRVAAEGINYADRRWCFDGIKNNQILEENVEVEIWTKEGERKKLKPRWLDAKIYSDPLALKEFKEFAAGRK

Row | Substance | Kd
1 | DENV2 NS3 helicase domain (domain or fragment) | 2500 nM
2 | DENV2 NS3 protease domain (domain or fragment) | 2400 nM
